Results: PMC9491710 (Science Advances, 2022)

Experiments:
crystal structure [1] = molecular target: the molecule itself; assay: crystal structure
crystal structure [2] = molecular target: the molecule itself; assay: crystal structure; remark: listed apart in the source
crystal structure [3] = molecular target: the molecule itself; assay: crystal structure; remark: listed apart in the source
cryo-EM structure = molecular target: the molecule itself; assay: cryo-EM structure

B1: isolated KS4 domain (amino acids 1587 to 2220 of BBR47_39880) (domain or fragment, UniProt C0ZGQ6 1587-2220, looked up)
chain: PPKGALDIAIIGISGRYPQARNIHDFWKNLRDGKDCITEIPKDRWDHSLYFDEAKDKLGKSYSKWGGFIDGVDQFDPLFFHISPREAELMDPQERLFLQCVYETIEDAGYTRETLGKHEGLGGNVGVYVGVMYEEYQLYASAEQALGRALAIAGSPASIANRVSYFCNFHGPSMAVDTMCSSSLTGIHLACHSLQRGECEVAIAGGVNVSIHPNKYLYLSQGKFASSKGRCESFGEGGDGYVPGEGVGAVLLKPLARAIADGDHIYGVIKGSAINHGGKTNGYTVPNPHSQSRVIRRAFEEAGIHPRTVSYIEAHGTGTSLGDPIEIAGLTKTFQEYTKENQFCAIGSAKSNIGHGESAAGIAGLTKILLQMKYKRLVPSLHSRTLNPNIDFSKTPFVVQQELAEWKRPVIEIDGVTREYARIAGISSFGAGGANAHLVIEEYIEAEHRPPSSISSKNPAVIVLSAKNKDRLREQVQRLLSAIREQVLTDNDLAEIAYTLQVGREAMEERFAVIVKSISELEAKLTYYLKDEADSPDLFTGQVKRNKETMDVFAADEDLQQAIDTWITKGKYAKILQMWVQGLIFDWNKLYGDTKPRRISLPAYPFARERYWLPKVESQAIGLTAGEPAYLHPL
stoichiometry N (crystal structure [1]): 2

B2: isolated KS3 domain (amino acids 532 to 1135 of BBR47_39880) (domain or fragment, UniProt C0ZGQ6 532-1135, looked up)
chain: SPSSVVRDVAIIGLSGRYPQAKNVDEFWNRLKEGKNCISEIPKDRWDWQSFFDEEKGKKESMYTKWGGFIDDMDKFDPLFFQISPKEAEEMDPQERLFLQEAYASIEDAGYTPTTLCESRKVGVFVGVMNGNYPTGATYWSIANRLSYLLNFQGPSVAVDTACSASLTAIHFALESLYSGTSECAIAGGVNLIVDPVHYMKLSALTMLSPSNQCKSFGDQADGFVDGEGVGAIVLKPLDKAIADGDHIYGVIKGSMMNAGGKTNGYTVPNPQAQAQLVADALQRANVHARTVSYLEAHGTGTELGDPIEVAGLTRAFEKDTQDKQFCALGSAKSNIGHCESAAGIAGVTKILLQLKHAQLVPSLHSRTLNPNIDFTKTPFVVQQELAEWRRPIVEINGTTNEYPRIAGISSFGAGGSNAHVIIEEYIPEEQKQSSLKITPQNPAIFVLSAKNAERLYEIVQQLLAFIQEHSLSDEHLADMAYTLQVGRVAMEERIAVIAGTMKELQQKLTAYVKGQEHIADLYRGQVNRNQEMLDILTSDDELEETIARWMERGKYSKLLDLWVKGLSIDWNKLYQEEQPGRISLPTYPFAKESYWTHARSVSS
stoichiometry N (crystal structure [2]): 2

B3: isolated DH3 domain (amino acids 1135 to 1434 of BBR47_39880) (domain or fragment, UniProt C0ZGQ6 1135-1434, looked up)
chain: SSTGVGVIHPFLHQNTSDFMEQRFSSMFTGQEFFLSDHVIKGQRVLPSAAYLEMARAAIQQATGGLDSERELEGLRFKNVVWTQPLAVGPEPVQAHIELYPEANGEIVFEIYSDSKQDRDQTTEIVHSQGSAVLCSIPDIPSFDLSVLQEQCSLRTLSAEQCYDAFKKMGVDYGPAHRGIEQILIGQEQVLAKLSLPSSVVKTQGQFGLHPSLLDAALQSSLGLMMATSDFSLILPFALEEMVIVGDCSSSMWALIRYREGSKAGDRVEKFDIDLCDENGNVQVRMKGFSTRKIANVSVR
stoichiometry N (crystal structure [3]): 2

B4: K3DAK4 bimodule core (KS3-DH3-ACP-KS4 fragment of BBR47_39880, amino acids 532 to 2220) (domain or fragment, UniProt C0ZGQ6 532-2220, looked up)
chain: SPSSVVRDVAIIGLSGRYPQAKNVDEFWNRLKEGKNCISEIPKDRWDWQSFFDEEKGKKESMYTKWGGFIDDMDKFDPLFFQISPKEAEEMDPQERLFLQEAYASIEDAGYTPTTLCESRKVGVFVGVMNGNYPTGATYWSIANRLSYLLNFQGPSVAVDTACSASLTAIHFALESLYSGTSECAIAGGVNLIVDPVHYMKLSALTMLSPSNQCKSFGDQADGFVDGEGVGAIVLKPLDKAIADGDHIYGVIKGSMMNAGGKTNGYTVPNPQAQAQLVADALQRANVHARTVSYLEAHGTGTELGDPIEVAGLTRAFEKDTQDKQFCALGSAKSNIGHCESAAGIAGVTKILLQLKHAQLVPSLHSRTLNPNIDFTKTPFVVQQELAEWRRPIVEINGTTNEYPRIAGISSFGAGGSNAHVIIEEYIPEEQKQSSLKITPQNPAIFVLSAKNAERLYEIVQQLLAFIQEHSLSDEHLADMAYTLQVGRVAMEERIAVIAGTMKELQQKLTAYVKGQEHIADLYRGQVNRNQEMLDILTSDDELEETIARWMERGKYSKLLDLWVKGLSIDWNKLYQEEQPGRISLPTYPFAKESYWTHARSVSSSTGVGVIHPFLHQNTSDFMEQRFSSMFTGQEFFLSDHVIKGQRVLPSAAYLEMARAAIQQATGGLDSERELEGLRFKNVVWTQPLAVGPEPVQAHIELYPEANGEIVFEIYSDSKQDRDQTTEIVHSQGSAVLCSIPDIPSFDLSVLQEQCSLRTLSAEQCYDAFKKMGVDYGPAHRGIEQILIGQEQVLAKLSLPSSVVKTQGQFGLHPSLLDAALQSSLGLMMATSDFSLILPFALEEMVIVGDCSSSMWALIRYREGSKAGDRVEKFDIDLCDENGNVQVRMKGFSTRKIANVSVRSEVEVPKASVPLEEEKAIDSSSLMEQATPYFKKLLSSVIKLPANKMEADASLEKYGVDSIVAMQMTKELEKQFGSLPKTLFFEYQTIKELTGYFLENYRENLMHILGMRENAEASLTQESEATMVDEVKAQTERRSKKRKSQRFASLRMETQPPKGALDIAIIGISGRYPQARNIHDFWKNLRDGKDCITEIPKDRWDHSLYFDEAKDKLGKSYSKWGGFIDGVDQFDPLFFHISPREAELMDPQERLFLQCVYETIEDAGYTRETLGKHEGLGGNVGVYVGVMYEEYQLYASAEQALGRALAIAGSPASIANRVSYFCNFHGPSMAVDTMCSSSLTGIHLACHSLQRGECEVAIAGGVNVSIHPNKYLYLSQGKFASSKGRCESFGEGGDGYVPGEGVGAVLLKPLARAIADGDHIYGVIKGSAINHGGKTNGYTVPNPHSQSRVIRRAFEEAGIHPRTVSYIEAHGTGTSLGDPIEIAGLTKTFQEYTKENQFCAIGSAKSNIGHGESAAGIAGLTKILLQMKYKRLVPSLHSRTLNPNIDFSKTPFVVQQELAEWKRPVIEIDGVTREYARIAGISSFGAGGANAHLVIEEYIEAEHRPPSSISSKNPAVIVLSAKNKDRLREQVQRLLSAIREQVLTDNDLAEIAYTLQVGREAMEERFAVIVKSISELEAKLTYYLKDEADSPDLFTGQVKRNKETMDVFAADEDLQQAIDTWITKGKYAKILQMWVQGLIFDWNKLYGDTKPRRISLPAYPFARERYWLPKVESQAIGLTAGEPAYLHPL
stoichiometry N (cryo-EM structure): 2
